To fix the notation:
T1: human fibrinogen (human, UniProt P02671 20-629; P02675 31-491; P02679 27-437)
T1 construct: also called Fg; intact Fg
T1 sequence 1: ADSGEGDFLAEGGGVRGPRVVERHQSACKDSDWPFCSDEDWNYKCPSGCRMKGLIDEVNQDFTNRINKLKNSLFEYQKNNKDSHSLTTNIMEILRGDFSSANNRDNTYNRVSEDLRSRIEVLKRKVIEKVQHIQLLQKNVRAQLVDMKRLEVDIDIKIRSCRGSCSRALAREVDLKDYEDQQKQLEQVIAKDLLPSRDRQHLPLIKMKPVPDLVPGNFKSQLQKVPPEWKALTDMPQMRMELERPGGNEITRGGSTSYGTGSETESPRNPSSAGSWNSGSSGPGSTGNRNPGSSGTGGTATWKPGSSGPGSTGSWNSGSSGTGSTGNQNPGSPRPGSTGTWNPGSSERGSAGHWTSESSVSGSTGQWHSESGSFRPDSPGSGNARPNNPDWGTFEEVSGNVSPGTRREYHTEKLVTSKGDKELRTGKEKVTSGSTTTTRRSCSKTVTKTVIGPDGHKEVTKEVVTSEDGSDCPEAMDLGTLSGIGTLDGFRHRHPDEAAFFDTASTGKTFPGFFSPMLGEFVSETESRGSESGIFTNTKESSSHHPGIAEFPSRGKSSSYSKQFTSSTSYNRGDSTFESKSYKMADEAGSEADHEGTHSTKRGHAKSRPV
T1 sequence 2: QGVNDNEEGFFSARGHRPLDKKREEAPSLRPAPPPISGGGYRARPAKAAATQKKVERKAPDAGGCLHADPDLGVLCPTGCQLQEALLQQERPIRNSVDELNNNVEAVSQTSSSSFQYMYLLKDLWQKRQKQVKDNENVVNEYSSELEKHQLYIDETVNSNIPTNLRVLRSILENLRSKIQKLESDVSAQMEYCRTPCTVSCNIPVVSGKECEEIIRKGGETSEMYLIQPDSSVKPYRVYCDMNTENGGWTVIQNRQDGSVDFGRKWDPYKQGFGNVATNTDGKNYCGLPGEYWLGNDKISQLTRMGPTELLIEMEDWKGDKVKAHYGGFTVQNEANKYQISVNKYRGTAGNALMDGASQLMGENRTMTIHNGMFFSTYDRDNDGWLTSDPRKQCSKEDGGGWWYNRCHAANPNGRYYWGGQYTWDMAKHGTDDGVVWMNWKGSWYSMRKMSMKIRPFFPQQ
T1 sequence 3: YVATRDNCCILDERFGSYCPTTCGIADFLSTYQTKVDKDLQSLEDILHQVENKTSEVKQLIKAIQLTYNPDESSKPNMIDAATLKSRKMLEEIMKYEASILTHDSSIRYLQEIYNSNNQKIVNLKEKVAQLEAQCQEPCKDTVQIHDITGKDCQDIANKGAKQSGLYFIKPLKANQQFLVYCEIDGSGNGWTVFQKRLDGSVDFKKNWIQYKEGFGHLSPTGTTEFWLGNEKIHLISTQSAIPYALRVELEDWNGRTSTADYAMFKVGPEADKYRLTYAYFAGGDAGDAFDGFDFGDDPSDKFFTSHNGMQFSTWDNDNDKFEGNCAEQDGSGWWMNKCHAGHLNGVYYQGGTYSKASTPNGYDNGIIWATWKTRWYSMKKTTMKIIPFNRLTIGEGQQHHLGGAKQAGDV

T2: Fg D-fragment (UniProt P02671 130-216; P02675 164-491; P02679 114-437)
T2 construct: domain: D-fragment; also called D-domain
T2 sequence 1: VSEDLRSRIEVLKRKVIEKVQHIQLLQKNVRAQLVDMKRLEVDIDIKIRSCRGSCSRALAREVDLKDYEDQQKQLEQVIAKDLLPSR
T2 sequence 2: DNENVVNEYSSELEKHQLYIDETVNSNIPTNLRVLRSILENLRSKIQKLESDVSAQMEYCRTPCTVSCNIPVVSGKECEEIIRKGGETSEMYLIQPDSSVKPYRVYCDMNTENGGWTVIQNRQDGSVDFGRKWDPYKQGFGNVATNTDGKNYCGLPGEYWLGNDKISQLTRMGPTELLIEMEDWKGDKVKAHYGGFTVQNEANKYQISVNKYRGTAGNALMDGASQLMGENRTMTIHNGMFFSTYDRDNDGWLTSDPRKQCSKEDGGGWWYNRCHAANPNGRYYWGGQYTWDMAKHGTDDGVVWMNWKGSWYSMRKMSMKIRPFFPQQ
T2 sequence 3: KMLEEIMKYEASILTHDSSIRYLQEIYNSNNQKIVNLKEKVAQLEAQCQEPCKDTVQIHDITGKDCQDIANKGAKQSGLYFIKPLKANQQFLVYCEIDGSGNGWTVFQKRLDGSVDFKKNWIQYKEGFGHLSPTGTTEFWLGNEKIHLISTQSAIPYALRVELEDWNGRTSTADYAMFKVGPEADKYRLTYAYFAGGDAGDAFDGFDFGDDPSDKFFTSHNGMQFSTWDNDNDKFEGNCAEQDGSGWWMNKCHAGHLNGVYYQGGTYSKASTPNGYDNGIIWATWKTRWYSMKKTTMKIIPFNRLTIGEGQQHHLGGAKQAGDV

T3: ClfACC (S. aureus, UniProt Q53653 229-545, engineered disulfide bond between C327 and C541)
T3 construct: also called disulfide bond-closed ClfACC; closed form of ClfA N2N3
T3 sequence: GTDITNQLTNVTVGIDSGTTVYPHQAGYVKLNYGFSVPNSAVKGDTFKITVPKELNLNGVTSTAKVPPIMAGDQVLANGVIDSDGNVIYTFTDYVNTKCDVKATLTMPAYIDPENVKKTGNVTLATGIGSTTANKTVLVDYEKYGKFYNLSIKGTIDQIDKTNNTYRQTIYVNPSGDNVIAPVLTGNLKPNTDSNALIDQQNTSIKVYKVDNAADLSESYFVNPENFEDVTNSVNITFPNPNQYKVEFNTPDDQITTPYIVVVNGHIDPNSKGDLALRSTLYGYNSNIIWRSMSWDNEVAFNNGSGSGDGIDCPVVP

B1: ClfAPWY (other)
chain: VAADAPAAGTDITNQLTNVTVGIDSGTTVYPHQAGYVKLNYGFSVPNSAVKGDTFKITVPKELNLNGVTSTAKVPPIMAGDQVLANGVIDSDGNVIYTFTDYVNTKDDVKATLTMPAYIDPENVKKTGNVTLATGIGSTTANKTVLVDYEKYGKFYNLSIKGTIDQIDKTNNTYRQTIYVNPSGDNVIAPVLTGNLKPNTDSNALIDQQNTSIKVYKVDNAADLSESYFVNPENFEDVTNSVNITFANPNQYKVEFNTPDDQITTPYIVVVNGHIDPNSKGDLALRSTLYGANSNIIARSMSWDNEVAFNNGSGSGDGIDKPVVPEQPDEPGEIEPIPE
notes: also called triple mutant
B2: ClfA370-559 (other)
chain: EKYGKFYNLSIKGTIDQIDKTNNTYRQTIYVNPSGDNVIAPVLTGNLKPNTDSNALIDQQNTSIKVYKVDNAADLSESYFVNPENFEDVTNSVNITFPNPNQYKVEFNTPDDQITTPYIVVVNGHIDPNSKGDLALRSTLYGYNSNIIWRSMSWDNEVAFNNGSGSGDGIDKPVVPEQPDEPGEIEPIPE
notes: also called recombinant form of N3
B3: Fg γ-peptide P16 (peptide)
peptide: GEGQQHHLGGAKQAGAV
notes: domain: γ-peptide; Position 410 probably counts on the mature γ-chain; also called P16 peptide; Fg-γ P16 peptide
B4: synthetic C-terminal γ-chain peptide (peptide)
peptide: GEGQQHHLGGAKQAGDV
notes: domain: C-terminal γ-chain peptide; also called Fg γ-peptide; synthetic Fg γ-peptide

Experiment [1] concerns the target T1, human fibrinogen. The experiment is described as follows: SPR; immobilized Fg; estimated; SPR, Fg, estimated, data not shown.
The target in experiment [2] is B3. The experiment can be described thus: ITC, 0.5 mM P16 peptide injected into 30 µM ClfAPWY; OneSites fit box. (ITC needs no label: the signal is the heat of the interaction.)
Experiment [3] has as its target T2, Fg D-fragment. The experiment can be described thus: SPR; immobilized D-fragment; estimated; SPR, D-fragment, estimated, data not shown.
Experiment [4] concerns the target B3. The experiment can be described thus: ITC, 0.5 mM P16 peptide injected into 30 µM ClfAPWY; OneSites fit box, unit not given.
The target in experiment [5] is T1, human fibrinogen. The experiment can be described thus: SPR; immobilized Fg against γ-peptide.
The target in experiment [6] is T2, Fg D-fragment. The experiment can be described thus: SPR; immobilized Fg D-fragment against γ-peptide. In general terms: In SPR one partner is held on a chip, and binding of the other changes the refractive index at the surface.
Experiment [7] addresses T1, human fibrinogen. The experiment is described as follows: SPR (Biacore), drawn table Ligand/analyte: fibrinogen immobilized, ClfA N3 domain (ClfA370-559) as analyte.
The target in experiment [8] is T2, Fg D-fragment. The experiment is described as follows: SPR (Biacore), drawn table Ligand/analyte: Fg D-fragment immobilized, ClfA N3 domain (ClfA370-559) as analyte.
The experiment “ClfAPWY” addresses B1. The experiment can be described thus: ITC; 0.5 mM P16 injected into 30 µM ClfAPWY, 30 °C; ITC, P16 peptide.
The target in experiment [9] is T3, ClfACC. The experiment can be described thus: ITC, peptide titrated into ClfACC (paragraph 56 gives this KD as '9' without a unit and calls the peptide a synthetic C-terminal γ-chain peptide; the sheet names it P16).
The target in experiment [10] is T3, ClfACC. The experiment is described as follows: ITC; peptide titrated into a cell containing ClfACC; the unit is missing in the print; γ-chain peptide titrated into ClfACC.

Here are results for four molecules from patent US20180369355A1 (TEXAS A AND M UNIVERSITY SYSTEM, published 2018).

One may read the Kd as the constant that tells how readily two partners part at equilibrium.

Turning to B1, in the experiment with human fibrinogen [1], the Kd was 10 µM. In addition, in the experiment with Fg γ-peptide P16 [2], the N was 1.23. The Kd in the experiment with Fg D-fragment [3] was 17 µM. In the experiment with Fg γ-peptide P16 [4], this molecule returned a ΔH of -6790 and a ΔS of 1.59.
Turning to B2, the “fold lower KD than for the γ-peptide” value with human fibrinogen [5] and in the experiment with Fg D-fragment [6] was roughly 10 fold throughout. The Kd with human fibrinogen [7] is 5.9 µM; with Fg D-fragment [8] it was 6.9 µM.
B3: the Kd in the experiment with ClfAPWY was roughly 5.8 µM; with ClfACC [9], 9 µM.
On to B4, for which the Kd in the experiment with ClfACC [10] came to 9 µM.
